This data set has as its system MS2 coat protein. The data set is described as follows: apparent KD of MS2 coat protein; designed switch direction (-1 OFF switch, 1 ON switch): 1; higher = weaker reporter binding. In a few lines: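 Transcription of designed RNA switches on Illumina chips was done by stalled E. coli RNA polymerase. SNAP-549-labelled MS2 coat protein was then titrated in doubling steps from 0.7 or 1.5 nM to 3 µM, with steps of 0.8–1.5 h at the lowest and 10–20 min at the highest concentration. The per-design median over clusters of curve-fitted normalised fluorescence is reported as apparent KD.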

The mark [1] stands for this setting: Eterna round: R95, input ligand: FMN 200 uM.
Where [2] appears, read: Eterna round: R95, input ligand: microRNA oligo, concentration not stated.
The mark [3] stands for this setting: Eterna round: R95, input ligand: none.
Setting [4] is: input ligand: microRNA oligo, concentration not stated.

As to “GUAAAACAUGAGGAUCACCCAUGUAAUAUAAUGGGAGGAUAUCUGAUUUAAUUAAAUUUAAGAGAAGGCCUAAAUG [Mat - Same State 1 - Mod of Eli - D56] (puzzle: Same State 1)”, the “apparent KD of MS2 coat protein” value worked out at 0.0321 µM under setting [1], 0.107 µM under setting [2] and 0.123 µM under setting [3].
For “GUAAAACAUGAGGAUCACCCAUGUCAACAAAGUCGAGGAUAUGGGCAUAUAUUAUAUGAACCAGAAGGCGAAUAUG [Mat - Same State 1 - Mod of UCT - D27] (puzzle: Same State 1)” the same measures were 0.0146 µM, 0.0431 µM and 0.0339 µM.
In the case of “GUAAAACAUGAGGAUCACCCAUGUCAUCUAAGUCGAGGAUAUGGGAAUUAAUUAAUUAAUCCAGAAGGCGAAAAUG [Mat - Same State 1 - D94] (puzzle: Same State 1)”, the “apparent KD of MS2 coat protein” value was 0.0411 µM under setting [1], 0.0581 µM under setting [2] and 0.11 µM under setting [3].
For “GUAAGUUUGAUGCUCGUCUCUCCGUACAGACAUGAGGAUCACCCAUGUAGUCGGGAAGUAGCCCGGCCAGUAUGGCC [Zaorve] (puzzle: Sensor for hsa-mir-208a)” the same measures were 0.0181 µM, 0.0222 µM and 0.0177 µM.
For the sequence “GUAAUAAAGGAAGGAUAUGGGUAAACGGGAAUCCCAGAAGGUCCACAUGAGGAUCACCCAUGUGGUCCCGAAACCAAGGGACCG [Cetibiza] (Eterna round: R96, puzzle: Same State NG 1)”, the “apparent KD of MS2 coat protein” value came to 0.0531 µM (input ligand: FMN 200 uM), 0.0193 µM under setting [4] and 0.0487 µM (input ligand: none).
For the sequence “GUACAAAUCAUAGGAUAUGGGCGGGAAUGCCGUCCAGAAGGAUGAACAUGAGGAUCACCCAUGUCCGGCCGCAAAUACGCGGCC [Xexeti] (Eterna round: R96, puzzle: Same State NG 1)”, the “apparent KD of MS2 coat protein” value runs as follows: (input ligand: FMN 200 uM) 0.0626 µM; under setting [4], 0.14 µM; (input ligand: none) 0.209 µM.
Taken in the same sequence, the figures for “GUACAGAUUAUAGGAUAUCACGUCGUUUAGACGUGAGAAGGAUAAUCCCACAUGAAUAUUAAUACAUGAGGAUCACCCAUGUAC [SSNG1/18-B3] (Eterna round: R96, puzzle: Same State NG 1)” were 0.0218 µM, 0.0277 µM and 0.0307 µM.
Consider “GUACAUAUUAUAGGAUAUCACGUCGAUUAGACGUGAGAAGGAUAAUCCCACAUGAAUAUUAAUACAUGAGGAUCACCCAUGUAC [SSNG1/18-A2] (Eterna round: R96, puzzle: Same State NG 1)”, for which the “apparent KD of MS2 coat protein” value runs as follows: (input ligand: FMN 200 uM) 0.0833 µM; under setting [4], 0.0663 µM; (input ligand: none) 0.051 µM.
With “GUACUACAUGAGGAUCACCCAUGUACAAAAGUACGAGGAUAUGCAUGGACGAAAGUUGGUGCAGAAGGCGUAGUAC [Pin2Pin #3] (puzzle: Same State 1)”, the “apparent KD of MS2 coat protein” value stood at 0.0202 µM under setting [1], 0.0259 µM under setting [2] and 0.024 µM under setting [3].
Take “GUAGAUGUAGAGGAGGAUAUUCAAUGAGGAACAUGAGGAUCACCCAUGUAAGAGAGAGAUGAUAGGAAGAAGGCUUAGAGAGAUG [Altered State 2-5 - Jieux - Same State 2] (puzzle: Same State 2)”: the “apparent KD of MS2 coat protein” value under setting [1] was found to be 0.0242 µM, the “apparent KD of MS2 coat protein” value under setting [2] was determined as 0.0317 µM and the “apparent KD of MS2 coat protein” value under setting [3] came out at 0.0431 µM.
For the sequence “GUAGCAUACCGAGGAUAUUCAACAUGAGGAUCACCCAUGUGUUUAUUAUAGGCCAAAAGGCCUUGGGAGAAGGCGGAAUGCUAC [Xeonanis - 20 Mod15] (Eterna round: R96, puzzle: Same State NG 2)”, the “apparent KD of MS2 coat protein” value came out at 0.0094 µM (input ligand: FMN 200 uM), 0.0084 µM under setting [4] and 0.0157 µM (input ligand: none).

Values taken from the supplement of paper PMC9170038.
